From patent US20250066499A1 (SUNSHINE GUOJIAN PHARMACEUTICAL SHANGHAI, published 2025) come the findings set out here.

What is called EC50 is the concentration giving half of the maximal effect. A higher EC50 goes with weaker potency. By Kd is commonly meant the equilibrium constant for the complex coming apart. As a reminder, the koff is a measure of how fast the partners let go of each other. The low end stands for slow dissociation, the high end for fast dissociation. For orientation: kon means the rate constant with which the complex forms. A lower kon goes with slow association.

Experiment [1] has as its target T1, CD73 protein on the surface of tumor cells (human, UniProt P21589 27-549).
T1 construct: whole, on cells; also called CD73 on H1975 cells; CD73 on MDA-MB-231 cells
T1 sequence (looked up): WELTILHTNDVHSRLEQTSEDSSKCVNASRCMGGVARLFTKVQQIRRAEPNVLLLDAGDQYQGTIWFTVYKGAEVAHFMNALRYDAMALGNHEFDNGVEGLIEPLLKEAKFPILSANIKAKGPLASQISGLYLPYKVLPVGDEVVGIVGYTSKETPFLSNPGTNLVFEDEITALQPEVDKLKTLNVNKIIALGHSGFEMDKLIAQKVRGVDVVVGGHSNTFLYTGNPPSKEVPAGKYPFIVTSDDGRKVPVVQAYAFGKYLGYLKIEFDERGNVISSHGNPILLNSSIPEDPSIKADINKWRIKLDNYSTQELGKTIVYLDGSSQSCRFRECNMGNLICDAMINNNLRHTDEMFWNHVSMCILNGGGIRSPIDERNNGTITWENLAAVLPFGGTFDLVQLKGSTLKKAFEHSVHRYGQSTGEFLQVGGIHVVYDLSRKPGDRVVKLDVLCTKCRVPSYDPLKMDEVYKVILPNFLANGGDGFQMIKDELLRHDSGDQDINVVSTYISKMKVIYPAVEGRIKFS
The experiment is described as follows: flow cytometry on H292 cells. The procedure:
(§1) MDA-MB-231 cells (triple-negative breast cancer), H292 cells (human lung cancer cells), and A375 cells (human malignant melanoma cells), all in their logarithmic growth phase, were collected respectively. The cells were washed once with RPMI-1640 basic medium and then adjusted to a cell concentration of 2.0×10⁶ cells/mL in RPMI-1640 basic medium containing 1% BSA (antibody diluent). The antibodies to be tested were diluted in a 3-fold gradient using the antibody diluent, and 100 μL of each concentration of the test antibodies was mixed with 100 μL of cells in a 96-well cell culture plate and incubated at 4° C. for 1 hour (the maximum working concentration of the test antibodies was 500 nM, with 1×10⁵ target cells per well). The cells were washed twice with PBS to remove unbound test antibodies. Then, the cells were mixed with 200 μL of 5 μg/mL FITC-labeled goat anti-human IgG-Fc secondary antibody and incubated at 4° C. for 30 minutes. The cells were washed twice again with PBS to remove unbound secondary antibodies, and finally, the cells were resuspended in 200 μL of PBS. The binding affinity of the test antibodies to the cells was determined using a flow cytometer.

The target in another experiment is T2, mouse CD73 protein (mouse, UniProt Q61503 29-549, limits assumed).
T2 construct: Bought protein; also called CD73-mouse
T2 sequence (looked up): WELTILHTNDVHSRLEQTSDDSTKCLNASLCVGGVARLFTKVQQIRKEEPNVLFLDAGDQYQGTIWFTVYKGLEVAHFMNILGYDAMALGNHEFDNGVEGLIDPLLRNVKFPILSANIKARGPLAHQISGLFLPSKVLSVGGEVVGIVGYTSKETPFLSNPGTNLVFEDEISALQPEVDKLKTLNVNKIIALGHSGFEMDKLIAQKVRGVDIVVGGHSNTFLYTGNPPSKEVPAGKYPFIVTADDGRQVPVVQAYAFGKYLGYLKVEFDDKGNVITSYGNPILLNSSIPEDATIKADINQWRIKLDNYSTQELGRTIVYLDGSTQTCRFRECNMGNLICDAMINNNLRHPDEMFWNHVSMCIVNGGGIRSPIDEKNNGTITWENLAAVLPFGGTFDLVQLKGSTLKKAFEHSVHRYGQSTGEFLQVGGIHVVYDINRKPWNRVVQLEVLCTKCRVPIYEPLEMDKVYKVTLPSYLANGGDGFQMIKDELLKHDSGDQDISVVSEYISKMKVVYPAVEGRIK
The experiment is described as follows: SPR Biacore 8K, antibody captured on Protein A/G.

Experiment [2] deals with T3, human CD73-His protein (human, UniProt P21589 27-549).
T3 sequence: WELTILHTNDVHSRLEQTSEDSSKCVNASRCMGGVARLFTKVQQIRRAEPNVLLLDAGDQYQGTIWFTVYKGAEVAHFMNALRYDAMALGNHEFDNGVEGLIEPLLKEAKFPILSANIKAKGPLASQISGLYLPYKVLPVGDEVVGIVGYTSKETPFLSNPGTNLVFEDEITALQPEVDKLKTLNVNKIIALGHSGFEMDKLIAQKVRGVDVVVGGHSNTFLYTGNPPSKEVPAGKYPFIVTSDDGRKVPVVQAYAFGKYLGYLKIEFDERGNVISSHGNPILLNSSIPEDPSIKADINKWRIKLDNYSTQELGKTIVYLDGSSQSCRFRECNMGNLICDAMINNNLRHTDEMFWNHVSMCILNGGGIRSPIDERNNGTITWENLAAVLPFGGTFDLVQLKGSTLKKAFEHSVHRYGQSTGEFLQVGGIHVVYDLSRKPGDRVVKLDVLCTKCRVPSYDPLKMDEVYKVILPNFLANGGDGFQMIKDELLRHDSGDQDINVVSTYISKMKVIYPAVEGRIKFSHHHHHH
In words: cell-based or functional assay.

In experiment [3] the target is T1, CD73 protein on the surface of tumor …. The experiment is described as follows: cell-based or functional assay.
In experiment [4] the target is T3, human CD73-His protein. The experiment is described as follows: SPR Biacore 8K, antibody captured on Protein A/G, CD73-his in flow, 1:1 model. The method, then:
Antibodies to be tested were captured using a chip covalently coupled with Protein A/G, with the following operational parameters: antibody concentration of 2 μg/mL, contact time of 75 seconds, flow rate of 10 μL/min, and regeneration contact time of 30 seconds. The CD73-his antigen was diluted in HBS-EP pH 7.4 buffer, with the highest concentration being 100 nM, and diluted in a 2-fold gradient down to 0.78 nM. Duplicate wells and a 0 concentration point were set up. 6M guanidine hydrochloride solution was used as the regeneration buffer. Using the Biacore 8K, the samples were injected with the following parameters: binding time of 180 seconds, dissociation time of 900 seconds, flow rate of 30 μL/min, and regeneration contact time of 30 seconds. After the procedure was completed, the Biacore 8K Evaluation Software was used to analyze the data according to the “1:1 binding kinetics model,” yielding the binding kinetics parameters of each antibody to CD73.
On the technique in general: Surface plasmon resonance follows binding to a sensor surface in real time, without labels.

Experiment [5] addresses T1, CD73 protein on the surface of tumor …. The experiment is described as follows: flow cytometry on A375 cells. The procedure: as §1
Background: Flow cytometry measures light scatter and fluorescence of single cells or particles in a stream.

B1: 56B10-HuV31 (antibody, human IgG4, V domains shown)
VH: QVQLQQSGAEVKKPGASVKVSCKASGYTFTRYYIYWVRQRPGQGLEWIGWIYPGNFNTKYNEKFKGRATLTADTSASTAYMELSSLTSEDTAVYYCARDVYDYAGFAYWGQGTLVTVSS
VL: DIQLTQSPSFLSASVGDRVTITCKASQGVATAVAWYQQKPGQSPKLLIYWASTRHTGVPDRFSGSGSGTEFTLTISSLQPEDFATYYCQQYSSYPWTFGQGTKVEIK
notes: Humanized
The molecule B1 registered a 50% effective concentration (EC50) in experiment [1] of 2.55 nM. Further, the binding result with mouse CD73 protein is on record as “no binding”. Further, the “IC50 (nM), inhibition of enzyme activity of soluble CD73-His (AMP/ATP, Cell Titer-Glo)” value with human CD73-His protein [2] is 3.66 nM. For the same molecule, in experiment [3], the “IC50, inhibition of CD73 enzyme activity on A375 cells” value came out at 1.34 nM; the “IC50, inhibition of CD73 enzyme activity on H292 cells” value came to 0.818 nM; the “IC50, inhibition of CD73 enzyme activity on MDA-MB-231 cells” value was found to be 0.61 nM. Further, in the experiment with human CD73-His protein [4], the Kd came to 1.89 nM, the koff was 0.000376 s⁻¹ and the kon is 199000 M⁻¹ s⁻¹. The EC50 in experiment [5] turned out to be 1.27 nM.

B2: 48A11-HuV33 (antibody, human IgG4, V domains shown)
VH: QVQLVQSGAEVKKPGASVKVSCKASGYTFTSYWMHWVRQAPGQGLEWIGEINPSIGRTNYNEKFKSRVTLTRDTSTSTAYMELSSLRSEDTAVYYCARRVYGTMDYWGQGTLVTVSS
VL: DIQMTQSPSSLSASVGDRVTITCKASQDINSYLSWFQQKPGKSPKLLIYRANIWVDGVPSRFSGSGSGQDYTFTISSLQPEDIATYYCLQYDELYTFGQGTKVEIK
notes: Humanized
In experiment [1], B2 came in with a concentration giving a half-maximal response (EC50) of 2.31 nM. Moreover, in the experiment with mouse CD73 protein, the binding result is on record as “no binding”. Further, the “IC50 (nM), inhibition of enzyme activity of soluble CD73-His (AMP/ATP, Cell Titer-Glo)” value with human CD73-His protein [2] came to 4.27 nM. Moreover, in experiment [3], the “IC50, inhibition of CD73 enzyme activity on A375 cells” value was found to be 1.48 nM; the “IC50, inhibition of CD73 enzyme activity on H292 cells” value worked out at 0.859 nM; the “IC50, inhibition of CD73 enzyme activity on MDA-MB-231 cells” value stood at 0.566 nM. In the experiment with human CD73-His protein [4], binding was characterised by a dissociation constant (Kd) of 2.26 nM, the koff stood at 0.000381 s⁻¹ and the kon amounted to 168000 M⁻¹ s⁻¹. Further, the EC50 in experiment [5] worked out at 0.789 nM.
